Assay results as given in the DeepSol protein solubility set.

assay: soluble on expression in E. coli; label from the status in PepcDB or PDB records

Q: With “MYWERGLHMYKASAVVPTGYVRVGNTAPLVGEDTQRYASFWGDGYDVYRQLRWQQIPEKQRKAFKKAAKSKKTVMFAGREYGISKQNLSDVWDDFEDAMELKAFPCLSSLFLTKWHKNLYDSGLTKTSTALPRLSSKRTIL” as the sequence, how does the “soluble on expression in E. coli” value read?
A: not soluble

Q: With “MSATLPCGMHKCQRLCHKGECLVDEPCKQPCTTPRADCGHPCMAPCHTSSPCPVTACKAKVELQ” as the sequence, how does the “soluble on expression in E. coli” value read?
A: soluble

Q: Which “soluble on expression in E. coli” value does the source give for “MSLIMSEPPQLTTPDDKDVENRKHSSTYSISNLLLEKKESSPSGSSSEDDSASSNDDDQRSPSATSSFIFPPASSSSSSESATSPTQIMAQLMANGGAVDPGLQAYFFLLQSQLNSQSMMNRVTQENVSRALTSFNLLNNLPGALPSLSPMGRLQHSMQLSPNSLNMQKKQSRPTFTGHQIYQLERKFEQTKYLAGADRAQLAQELNMSESQVKVWFQNRRTKWRKKEAADNALVKRGASGDKSPCSLSPFLSAGI” here?
A: not soluble

Q: With “MGSDKIHHHHHHMDEQQQLANAYHSNKLSHAYLFEGDDAQTMKRVAIHFTKLILCNNSNQCELKVDTFNHPDFSYVSSDENTIKKEQIEQLVHHMNQLPIEGQYKVYIIEDFEKLTVQGENSILKFLEEPPDNTIAILLSTKPEQILDTIHSRCQHVYFKPIDKRQFIERLVEMSIARPVAEMLSTYTTQIEAASSLNEEFDLVTLRKSIIRWCQLILSNKAMALIGVIELLKQAKNRKLQLLTLSAVNGFFEDIMHAKIEMDNYYTFSDLTEEIENYANQLTFNQLILMYDQITEAHKKLNQNVNPTLVFEQIVIKGVI” as the sequence, how does the “soluble on expression in E. coli” value read?
A: not soluble

Q: For “MRVLVRNDKDDFRVKAYAGTNGVLLAMDLDASRRQGLLGFAIEKQTGSKPWLFLFNSLTFPGKAHTFPQYNATPSDQAPLQKFRWADYAVNPGATLNYRVHLAYGNPDAPQLGESLQLSITADNGQPPGQRVIFNRAVAASQAFSRKFPELDALLSANKNLPIEKWPDAPRQWLENGLLEALLGFIQRATDASWSLDIAIYEYQLQAIIDAVNAAFDRGVQVRVLYHAAPGDADTTMNQASLQHLPEANKRGRVTHAIFHDKFIVLGRLDAAGQRQPQSVLCGSTNFTANGVYRQANVLHSLDHVDIATRYLEVFEQVWATPADVGATRTWLTRNNPMQPQAPLFAGFSPRSGQGDLAEFVDIINGARRDLLFVTAFALPDSILDALLGQPHDDVLRYGLQNTASRITGFHADRTAEFAATALLNNGLEGWLKEGLKGQKGNLLVHTKAIVTDFTSEAPVIISGSHNLSVGASQSNDENFLIIRGDIDLADRYGLELLRFYEHYRFRYFARQLALKQVQPLAVDDSWSNAYYLEGDLRQLSRLRFSGRLEHHHHHH”, which “soluble on expression in E. coli” value is on record?
A: not soluble

Q: With “MRGTDMAKQQMNIKIKKGEQFPVTIQRIGINGEGVGYFQKQVVFVPGALPGEEVIVEATDIHPTYAEAKIKRIRKRSPNRIKPPCPLYDQCGGCQLQHLSYEAQLEAKRDIVIQALRRHARRLDVDKLDIRPTIGMDNPWHYRNKSQFQVGMKEGKVLAGLYGINSHRLIDLSECRVQHPQTTRVTNIVKTILQDLRIPIYNERTRTGVVRTIVVRVGFHTGDIQLVLVTATKDIPRKQLLIDEIRRRLPEVKSIVQNINGEKTSLIFGDETEVLAGDEYIQETLGDLSFELSSRAFFQLNPLQTVKLYDEVKKAAALTGTERIVDAYCGVGTIGLWLARDAKEVRGMDTIPEAIEDAQNNAKKHGFTNTHYVVGKAEYWLPKWVKGGWKPDVIIVDPPRVGCDRALLETILHVRPKTVVYVSCNPSSLARDLDALAAQYRVDYIQPVDMFPHTAHVECVAKVRLEL” as the sequence, how does the “soluble on expression in E. coli” value read?
A: not soluble

Q: With “MKFKDLRDFVQQLEQRGELKRIQMPISPVLEMTEICDRTLRAKGPALLFENPVGFDIPVLGNLFGTPERVAMGMGAEAVTELREIGKLLAFLKEPEPPKGLKDAWSKLPIFRKVIAMAPKVVKDAPCQEIVIEGDDVDLGMLPVQTCWPGDVAPLITWGLTVTKGPNKERQNLGIYRQQVIGRNKIIMRWLSHRGGALDFRDWCVKHPGEPYPVAVALGADPATILGAVTPVPDSLSEYAFAGLLRGSRTELIKCRGSNLQVPASAEIVLEGVIHPGEMANEGPYGDHTGYYNEVDSFPVLTVERITHRIKPIYHSTYTGRPPDEPAILGVALNEVFVPILQKQFPEIVDFYLPPEGCSYRMAVVTIKKQYPGHAKRVMLGVWSFLRQFMYTKFVIVTDDDINARDWNDVIWAITTRMDPKRDTVMIDNTPIDYLDFASPVSGLGSKMGLDATNKWPGETTREWGRAIVKDEATTRRVDEIWTQLGIDLEHHHHHH” as the sequence, how does the “soluble on expression in E. coli” value read?
A: not soluble

Q: Which “soluble on expression in E. coli” value does the source give for “MGSDKIHHHHHHMSSPFDYFVVFAEMRTGSNFLEANLNALDGVACVGEAFNPHFIGYPNKTEILEVSQDMRDADPQCLIDAVRDARGVLAGFRFFHDHDPRVLDLVLSDPRCAKIILTRNPLDSYVSWKIAKETGQWKLTNIKRRKEAQARFDAEEFARHVEALQDFQVFLLNSLQRSGQTPFYVAYEDLQDLSVMNGLAQWLGVSARLEQLDDSLKRQNPSPVTSKVVNAGEMVEALSGLDRFNLTRTPNFEPRRGPAVPTYVTGAVTPLIYLPVRGGPEDEVRRWMADLDGVVDAALGTGLNQKQVRGWLKGNEGHRAFTVLRHPLARAHSAFCHRILNKGPGCFTKIRNTLRRQFSLPIPEGTPGLDYGRADHRAAFEAFLEFVRMNLAGQTAIRIDGSWCSQAQALSSFAEFVSPDLILREDEIATDLPSLARRFGHAEPPEPPRAAPDTPIPLSDIYDDALEALAADVYQRDYIVFGFGKWAGGQA” here?
A: not soluble

Q: For “TSTMTDTVFSNSSNRWMYPSDRPLQSNDKEQLQAGWSVHPGGQPDRQRKQEELTDEEKEIINRVIARAEKMEEMEQERIGRLVDRLENMRKNVAGDGVNRCILCGEQLGMLGSACVVCEDCKKNVCTKCGVETNNRLHSVWLCKICIEQREVWKRSGAWFFKGFPKQVLPQPMPIKKTKPQQPVSEPAAPEQPAPEPKHPARAPARGDSEDRRGPGQKTGPDPASAPGRGNYGPPVRRASEARMSSSSRDSESWDHSGGAGDSSRSPAGLRRANSVQASRPAPGSVQSPAPPQPGQPGTPGGSRPGPGPAGRFPDQKPEVAPSDPGTTAPPREERTGGVGGYPAVGAREDRMSHPSGPYSQASAAAPQPAAARQPPPPEEEEEEANSYDSDEATTLGALEFSLLYDQDNSSLQCTIIKAKGLKPMDSNGLADPYVKLHLLPGASKSNKLRTKTLRNTRNPIWNETLVYHGITDEDMQRKTLRISVCDEDKFGHNEFIGETRFSLKKLKPNQRKNFNICLERVIPMKRAGTTGSARGMALYEEEQVERVGDIEERGKILVSLMYSTQQGGLIVGIIRCVHLAAMDANGYSDPFVKLWLKPDMGKKAKHKTQIKKKTLNPEFNEEFFYDIKHSDLAKKSLDISVWDYDIGKSNDYIGGCQLGISAKGERLKHWYECLKNKDKKIERWHQLQNENHVSSD”, which “soluble on expression in E. coli” value is on record?
A: soluble

Q: With “MFNALLLTQQDKITHATVTQINDDQLPAGNVTVAVNYSSLNYKDGLAITGKGKIIREFPMVPGIDFAGTVLESADARYQVGDAVVLTGWGVGENHWGGMAQKARLNADWLVKLPQGLTSQQAMMIGTAGFTAMLCVQALIDGGIKPEDGEILVTGASGGVGSVAVTLLAQLGYKVVAVTGRVAQNGPLLEQLGASRVIDRQEFSEASRPLEKQLWVGAVDTVGSKVLAKVLAQMHYNGVVAACGLAGGFDLPTTVMPFILRNVRLQGVDSVSCPVEKRLAAWKKLAELLPASYYAQACHEISLSQVPEYAEAITNGQVTGRVVVKL” as the sequence, how does the “soluble on expression in E. coli” value read?
A: not soluble

Q: For “MGDIMQQQLTQALEAYLQKLDDEARIEAINAFRQVLHHYSPFRSQPVDCVLWVKQELVAPNDYNPNNVAPPEKRLLQTSLEADGFTQPVVVIQQRPQAYTIVDGFHRHELACSKAALKKTLKGYLPVTCLTSEAASRDGLMAATIRHNRARGRHQIHAMSEIVRELTQLGWTPQKIGKELGMDADEVLRLKQISGLTEMFAGRQFSQAWTIK”, which “soluble on expression in E. coli” value is on record?
A: not soluble

Q: For “MGSDKIHHHHHHMRILFYCDTVFSFGGVQRVLAEIAKALSGKHEVTILTTDTCTDLSMYGYAESTVRFDSFSYSASSFIERLLCKGYSFLYKHGLPHTRLTSEWYAASFFPSSYKRTLARKINARQCDVVIGVHAFMALHLSAVKSRIRTKTVGWLHNSYEAFFEKETPYLPGLDCFFQVQMGKLDERVVLSHADAGCFFRKMNLCCEVIYNPLTVLPKGRGKKEYRRILAVGRFSFGHKGFDILIKAFSVFVKTHPDWTLEIVGEGPEEALYRSLINEYELEKSIALHPFTKEVQEYYAHSSMYVLSSRWEGFGLVMIEAMAHGLPVIASDLPITRELLKDKDMAVLFETGNIAQLAGCMSYMADRTDWEWMGNKAVEYADTFHIEKVCDSWNNLLKKVVYGTR”, which “soluble on expression in E. coli” value is on record?
A: not soluble

Q: For “MANDIVPQDENGAGMPVEFDASTITGEEKAAILLLSLNEQDAAGIIRHLEPKQVQRVGSAMARAKDLSQEKVSAVHRTFLEDIQKYTNIGMGSEDFMRNALVAALGEDKANNLVDQILLGTGSKGLDSLKWM”, which “soluble on expression in E. coli” value is on record?
A: not soluble

Q: Which “soluble on expression in E. coli” value does the source give for “TDRVIMSIFTSDKLVDQSWGSLAYLAQLHVEKKFPVDIELYSEVDTIEKMEESLHASIDRKTELIIGHGREFSDIFTKVAPSYPTVRFVTIHGSATYENQTVYTFEKGKIELIAALAATMKSKTRKVALIDAYDGREDEPYFERGLEKYANDIEFFYYVVNSRHDGKQAKAVMDKLIKEGVDVVYSRGNAFNRDVIHYAKQHDIYVIGFLDDQSYLGEEHVLTSVLNDVTQAYVKI” here?
A: not soluble

Q: For “MGSDKIHHHHHHMLNTIGERQKQLLKLLRGSRPGLSVDELSKGLEITRNAVRQHLSSLEGAGLVTAGNTRPSGGGRPQQLYVLTELGKESFPRQYSWLAQLVLASVRREEGVENMGKRLSEIGAGIAEQIRGQYPDLNTKEEKIDKLTEVMDQLGYNAKSATLPNGEKVIEADNCVFHQMAAKDMEICHLDRGLMETFTDSKVEQHECMARGGELCRFRFVSKKE”, which “soluble on expression in E. coli” value is on record?
A: not soluble

Q: With “MAHHHHHHMQLQADLTQRTDSVNAIQRNFERLSAMHHAEQLELRRLRLLEKTRSEVAPDGLDAATRQLESVLAEMRHKALEQQTTFVQMEVDLQAANSSCALQQGIARLIASHADGFRDVLQAEAVAHSQLYQSAMSERAIIGSRNEATQQQLLCKDVAQLVADHQAQIVTKLIRGGAAESCRLQKSLAQVSTATVQELVRQGLRETAEAVHQYVASIHAADQERVLAEAEGQRDRERLRLALGELLRLRLRATEEAEATARQALLFGALQACATAQRAAEEVRLLTANADAAAAATRSSWEVTAALLTRRVSDWHDAADMRLVDFHDTIEASMAEKARERDAQSQQKTQELLLEERKRLENLHASQMQTMQVDWRRQRDAVQQSHAMQLEQVRSDLVAQVQVAEDRRVAAERRTGAMEAALIQLKRDHAAEVQAVEAHWRSAVSDAGRHCEQRWRTMLEVYQEGQKAHRGAMLQLFVDFLCTRGQCVYEEQAERAALCRSHWRNQTQHLREEQAAVMQHGVATADLLERMRCHKEDEAASRAVLHASEASDWAALVRKEAAHNAQAHHAVSMAAAAAGLEGLRAEMAGREVRWGQRLDALEADLRRAQQKCLGVVRRASDAVVAAQEAQAALQATQRDFAAYRCGVSAAAQRIEVAESATESACCCSLCLQLYCQPVACVPCGHIYCANCLLRHARNRSLSSVTSSFASAAGASTSENGAVGARAALEVTHWLRGKSTPHAFLFCPECASATVSTVVELPILGELTAKYDYKKRSLAVLLAELR” as the sequence, how does the “soluble on expression in E. coli” value read?
A: not soluble

Q: With “GPGSMRGKTKKRKIYKRFSSLPKTETSTLPTVHSHTTCIRVQHVSHHLHAYICTLVSGMSHHRMWPSPITPSRTDATTTTTKTTTKNDTYSPHKKNTNTPHAKGRSYIVNLCHSFYSPTGDETVIWVTNVVRSCAAKYNYIPHILHSHETLVKRRCNENAANEKCLIRC” as the sequence, how does the “soluble on expression in E. coli” value read?
A: not soluble
